Results reported in patent US9090897B2, “Production of IFN-lambda by conventional dendritic cells” (Bavarian Nordic A/S, priority 2009, dated 2015).
“Also recorded” adds a separate entry of the source.

Columns and labels:
mice [1] = experiment: In vivo challenge (i.v.), serum IFN-λ and IFN-α by ELISA; set-up: species or system mouse; details: for IFN-λ production to poly IC after growth factor treatment: FL-KO mice treated 7 days with 10 μg growth factor per day, then 100 μg poly IC i.v., 3-4 h
Protocol: Mice were injected i.v. into the lateral tail vein with 100 μg poly IC (Axxora) and serum was collected 3-4 h after challenge. Sera were pre-diluted 1/5, […] was analyzed by ELISA as described (Hochrein et al., 2004). IFN-λ was determined by an IFN-λ3 (IL-28B) ELISA (R&D Systems).

CD8α+ cDCs = experiment: In vitro stimulation of FL expanded ex-vivo isolated splenic CD8α+ cDCs, IFN-λ; format: cell-based, mouse; details: 5×10^5/ml, IL-3+GM-CSF+IL-4+IFN-γ, 100 μg/ml, 18 h
Protocol: (§1) FIG. 13 depicts that in vivo FL expanded CD8α+cDCs and eCD8α cDCs selectively produce IFN-λ to poly AU in vitro. Highly purified FL expanded ex-vivo isolated splenic 5×10^5/ml were stimulated in the presence of IL-3+GM-CSF+IL-4+IFN-γ with either poly IC (100 μg/ml) or poly AU (100 μg/ml). After 18 h supernatants were analyzed for IFN-λ.
(§2) To see if the IFN-λ production to poly AU seen in vivo would correspond with the same cells as in response to poly IC we enhanced the amount of DC in mice with FL treatment and sorted CD8α+ cDCs, eCD8α cDCs and CD11b+/CD172a+cDCs. Those cells were stimulated with poly IC or poly AU.

eCD8α cDCs = experiment: In vitro stimulation of FL expanded ex-vivo isolated splenic eCD8α cDCs, IFN-λ; format: cell-based, mouse; details: 5×10^5/ml, IL-3+GM-CSF+IL-4+IFN-γ, 100 μg/ml, 18 h
Protocol: as §1, §2

mice [2] = experiment: In vivo challenge (i.v.), serum IFN-λ and IFN-α by ELISA; set-up: species or system mouse
splenic CD8+ cDC = experiment: In vitro stimulation of sorted splenic CD8+ cDCs, cytokines in supernatant (IFN-λ ELISA, IL-12p70 FlowCytomix); format: cell-based, mouse; details: for IFN-λ production in combination with poly IC: stimulus added together with poly IC, IL-3 and GM-CSF, 18 h; for effect of cytokine on IFN-λ production / effect of cytokine on IL-12p70 production: combinatory stimulus poly IC+CpG-1668, cytokine 10 ng/ml
Text: DC subsets were isolated from pooled mouse spleens as described (Vremec et al., 2007). Briefly, spleens were chopped, digested with collagenase (Worthington Biochemical) and DNase (Roche) at room temperature, and treated with EDTA. Low-density cells were enriched by density centrifugation; non-DC lineage cells were coated with mAbs (anti-CD3, KT3-1.1; anti-Thy-1, T24/31.7; anti Gr-1, 1A8; anti-CD19, ID3; anti-erythrocytes, TER119 and anti-NK cells, DX5) and depleted using anti-rat Ig magnetic beads (Qiagen). Dead cells were excluded by propidium iodide staining. cDC populations were sorted based on the expression of CD11c, CD45RA, CD4, CD8a and CD172a and pDCs were purified based on CD11c, CD45RA, and CD172a (all BD Biosciences) expression. Cell sorting was performed on a FACS Aria instrument (BD Biosciences).
Cells were stimulated in vitro with single TLR agonists or combinations thereof containing 10 μg/ml Pam3Cys (InvivoGen), 100 μg/ml poly IC (Axxora), 10 μg/ml LPS (E. coli; Sigma-Aldrich or Axxora), 10 μg/ml R848 (Axxora), 1 μM CpG-1668 or CpG-2216 (TIB-Molbiol), 1 μg/ml profilin of toxoplasma (Axxora). The recombinant cytokines mouse-IL-3, mouse-IL-4, rat-IFN-γ (PeproTech) and mouse-GM-CSF (Tebu-Bio) (10 ng/ml each) were added as indicated. The addition of IL-3 and GM-CSF was based on previous observations that GM-CSF promoted the production of IL-12p70 and that the combination of IL-3 and GM-CSF increased virus induced IFN-λ production in pDCs and cDCs (Hochrein et al., 2000; Hochrein et al., 2004). As source of a parapoxvirus Zylexis, which is used for veterinary purposes was purchased from a pharmacy. HSV-1, in replication deficient form known as disc HSV-1 (HSV-1d) was used as described (Hochrein et al., 2004). IFN-λ in supernatants was analyzed by ELISA and IL-12p70 was determined by FlowCytomix bead assay (Bender Medsystems) according to manufacturer's protocol.

polyadenylic:polyuridylic acid [poly AU]
IFN-λ in the sera (mice [1]; mice, 100 or 500 μg i.v., sera after 3-4 h): induces IFN-λ; also recorded: induced IFN-λ in the sera of mice
IFN-λ production (CD8α+ cDCs): able to produce IFN-λ
IFN-λ production (eCD8α cDCs): able to produce IFN-λ
systemic IFN-λ (mice [2]; mice, poly AU injection): not detectable

CCOCc1nc2c(N)nc3ccccc3c2n1CC(C)(C)O [R848]
IFN-λ production in combination with poly IC (splenic CD8+ cDC): unable to support poly IC induced IFN-λ production

CCCCCCCCCCCCCCCC(=O)N[C@@H](CSC[C@@H](COC(=O)CCCCCCCCCCCCCCC)OC(=O)CCCCCCCCCCCCCCC)C(=O)O [Pam3Cys]
IFN-λ production in combination with poly IC (splenic CD8+ cDC): synergistically increased IFN-λ production

B1: M-CSF: M-CSF receptor ligand, growth factor (protein, UniProt P09603 33-554, looked up)
Macrophage colony-stimulating …: EEVSEYCSHMIGSGHLQSLQRLIDSQMETSCQITFEFVDQEQLKDPVCYLKKAFLLVQDIMEDTMRFRDNTPNAIAIVQLQELSLRLKSCFTKDYEEHDKACVRTFYETPLQLLEKVKNVFNETKNLLDKDWNIFSKNCNNSFAECSSQDVVTKPDCNCLYPKAIPSSDPASVSPHQPLAPSMAPVAGLTWEDSEGTEGSSLLPGEQPLHTVDPGSAKQRPPRSTCQSFEPPETPVVKDSTIGGSPQPRPSVGAFNPGMEDILDSAMGTNWVPEEASGEASEIPVPQGTELSPSRPGGGSMQTEPARPSNFLSASSPLPASAKGQQPADVTGTALPRVGPVRPTGQDWNHTPQKTDHPSALLRDPPEPGSPRISSLRPQGLSNPSTLSAQPQLSRSHSSGSVLPLGELEGRRSTRDRRSPAEPEGGPASEGAARPLPRFNSVPLTDTGHERQSEGSFSPQLQESVFHLLVPSVILVLLAVGGLLFYRWRRRSHQEPQRADSPLEQPEGSPLTQDDRQVELPV
IFN-λ production to poly IC after growth factor treatment (mice [1]): able to increase IFN-λ production to poly IC

B2: IL-4: recombinant cytokine mouse-IL-4 (protein, UniProt P07750 21-140, looked up)
Interleukin-4: HIHGCDKNHLREIIGILNEVTGEGTPCTEMDVPNVLTATKNTTESELVCRASKVLRIFYLKHGKTPCLKKNSSVLMELQRLFRAFRCLDSSISCTMNESKSTSLKDFLESLKSIMQMDYS
effect of cytokine on IFN-λ production (splenic CD8+ cDC): not IFN-λ production
effect of cytokine on IL-12p70 production (splenic CD8+ cDC): increased IL-12p70

B3: IFN-γ: recombinant cytokine rat-IFN-γ (protein, UniProt P01581 23-156, looked up)
Interferon gamma: QGTLIESLESLKNYFNSSSMDAMEGKSLLLDIWRNWQKDGNTKILESQIISFYLRLFEVLKDNQAISNNISVIESHLITNFFSNSKAKKDAFMSIAKFEVNNPQIQHKAVNELIRVIHQLSPESSLRKRKRSRC
effect of cytokine on IFN-λ production (splenic CD8+ cDC): enhanced the production of IFN-λ
effect of cytokine on IL-12p70 production (splenic CD8+ cDC): little effects on IL-12p70 production

B4: FL: Fms-related tyrosine kinase 3 ligand, growth factor involved in development of DCs (protein, UniProt P49771 27-235, looked up)
Fms-related tyrosine kinase 3 …: TQDCSFQHSPISSDFAVKIRELSDYLLQDYPVTVASNLQDEELCGGLWRLVLAQRWMERLKTVAGSKMQGLLERVNTEIHFVTKCAFQPPPSCLRFVQTNISRLLQETSEQLVALKPWITRQNFSRCLELQCQPDSSTLPPPWSPRPLEATAPTAPQPPLLLLLLLPVGLLLLAAAWCLHWQRTRRRTPRPGEQVPPVPSPQDLLLVEH
IFN-λ production to poly IC after growth factor treatment (mice [1]): not only restored, but even increased, their IFN-λ producing capacity above WT level
systemic IFN-λ response to poly IC challenge after growth factor treatment (mice [2]; FL treated WT mice): greatly increased systemic IFN-λ response
